Experimental data: paper PMC8892353 (Proceedings of the National Academy of Sciences of the …, 2022)
Positions count from the first letter of the chain named. Names may count otherwise.

B1: Recombinant human COA7 (natural protein)
chain: MAGMVDFQDEEQVKSFLENMEVECNYHCYHEKDPDGCYRLVDYLEGIRKNFDEAAKVLKFNCEENQHSDSCYKLGAYYVTGKGGLTQDLKAAARCFLMACEKPGKKSIAACHNVGLLAHDGQVNEDGQPDLGKARDYYTRACDGGYTSSCFNLSAMFLQGAPGFPKDMDLACKYSMKACDLGHIWACANASRMYKLGDGVDKDEAKAEVLKNRAQQLHKEQQKGVQPLTFG
B2: Recombinant Y137C COA7 (^Y137CCOA7) (natural protein, human)
chain: B1 chain with Y137C

Columns and labels:
COA7 = COA7 (Homo sapiens, UniProt Q96BR5); experiment: biochemical
AUC = molecular target: the molecule itself; experiment: AUC

Molecule | Kd (COA7) | stoichiometry N (AUC)
C=CC1=C(C)C2=Cc3c(C=C)c(C)c4[n]3[Fe]([Cl])[n]3c(c(C)c(CCC(=O)O)c3=CC3=NC(=C4)C(C)=C3CCC(=O)O)=CC1=N2 [hemin] | 1400 ± 280 nM | –
B1 | – | 2
B2 | – | 2
